{"source": "patent US11643691B2", "about": "“Predictive biomarkers for cancer immunotherapy and methods of using same” (Duke University, priority 2018, dated 2023)", "molecules": {"B1": {"name": "Wnt5a: Recombinant Human/Mouse Wnt5a Protein (R&D Systems) (protein, UniProt P41221 62-380, looked up)", "Protein Wnt-5a": "IIGAQPLCSQLAGLSQGQKKLCHLYQDHMQYIGEGAKTGIKECQYQFRHRRWNCSTVDNTSVFGRVMQIGSRETAFTYAVSAAGVVNAMSRACREGELSTCGCSRAARPKDLPRDWLWGGCGDNIDYGYRFAKEFVDARERERIHAKGSYESARILMNLHNNEAGRRTVYNLADVACKCHGVSGSCSLKTCWLQLADFRKVGDALKEKYDSAAAMRLNSRGKLVQVNSRFNSPTTQDLVYIDPSPDYCVRNESTGSLGTQGRLCNKTSEGMDGCELMCCGRGYDQFKTVQTERCHCKFHWCCYVKCKKCTEIVDQFVCK"}}, "key": {"DCs [1]": {"tested_on": "DCs", "test": "Oxygen consumption rate (OCR) / OXPHOS, Seahorse XFe24 flux analysis of murine DCs", "format": "cell-based", "settings": "DCs pre-treated", "description": "Dendritic Cell Conditioning: DCs were treated with Wnt3a (100 ng/mL), Wnt5a (200 ng/mL), LPS (1 μg/mL), 1-MT (1 mM), 2DG (1 mM), or ETO (100 μM), 2-DG(2-deoxy-d-glucose, 1 mM), Oligomycin (1 μM), succinylacetone (250 μM), or vehicle control either for 24 or 48 hrs prior to their use in both in vitro and in vivo experiments.\nCellular Energy Metabolism Analysis: DC energy metabolism was measured using the XFe24 extracellular flux analyzer (Seahorse Bioscience), with the glycolysis stress test kit and the mitochondrial stress test kit as previously described (Everts et al., 2014, Zhao and Klimecki, 2015). For experiments involving LPS injection, DCs were plated in XFe24 plates (200,000/well in 500p1) and treated with LPS for 48 hours prior to XF analysis. DCs were washed and analyzed in XF media (RPMI without sodium bicarbonate, 10 mM glucose, 1% FBS, 2 mM L-glutamine). ECAR was analyzed in real-time with or without LPS stimulation. For experiments involving BrafV600EPten−/− cell line-derived conditioned media (CM), collected CM was concentrated and desalted with an Amicon Ultra 30K filter according to manufacturer's recommendations (Milipore). Final concentrate was further washed with XF media 3 times, added to DCs immediately prior to OCR analysis. For standard ECAR analysis, XF media (without glucose) was used to wash cells prior to the assay. […]"}, "DCs [2]": {"tested_on": "DCs", "test": "qRT-PCR / qPCR array / immunoblot gene expression in DCs", "format": "cell-based, Murine", "description": "Dendritic Cell Conditioning: DCs were treated with Wnt3a (100 ng/mL), Wnt5a (200 ng/mL), LPS (1 μg/mL), 1-MT (1 mM), 2DG (1 mM), or ETO (100 μM), 2-DG(2-deoxy-d-glucose, 1 mM), Oligomycin (1 μM), succinylacetone (250 μM), […]\n(§1) Antibodies, Immunoprecipitation, and Immunoblot Analysis: Primary antibodies including CPT1A (Cell signaling), PPAR-γ (Santa Cruz Biotechnology), β-catenin, β-actin (Millipore), p-AMPK(T172)/AMPK (Cell signaling), p-AKT(T308)/Akt (Cell Signaling) were used at 1:1000. Secondary antibodies including goat anti-rabbit IgG-HRP (Millipore) and goat anti-mouse IgG-HRP (Millipore) were used at 1:5000. Cells were lysed in Laemmli sample buffer after treatment and subjected to SDS-polyacrylamide gel electrophoresis and immunoblot analysis. For immunoprecipitation, cells were lysed in radio immunoprecipitation assay (RIPA) buffer [10 mM sodium phosphate (pH 8.0), 150 mM NaCl, 1% Triton X-100, 1% sodium deoxycholate, and 0.1% SDS in the presence of 1 mM DTT, 1 mM phenylmethylsulfonylfluoride, and a protease inhibitor cocktail (Sigma)], precleared with protein A beads, and then incubated with 1 μg of antibody against β-catenin or isotype control IgG with protein A-agarose beads on a rotator overnight at 4° C. After 3 washes with RIPA buffer, immunoprecipitated complexes were eluted in sample buffer by boiling and subjected to immunoblot analysis. Immunoblots were visualized by chemiluminescence substrate (ThermoFisher) and imaged by a ChemiDoc XRSplus system (BioRad).\nRNA Isolation, RT-qPCR, qPCR Array: Total RNA was isolated by RNeasy Plus Mini Kit(Qiagen). RNA(500 ng) were used in cDNA Synthesis (iScript, BioRad). Quantification of mRNA for genes involved in PPARγ signaling was performed using Mouse PrimePCR PPAR Array according to the manufacturer's protocol (BioRad). Real-time PCR was performed using an ABI7500 Real-Time PCR system (Life Technologies). Data analysis utilized the PrimePCR Analysis Software (BioRad). Conventional qPCR was performed using validated primers, and SsoAdvanced Universal SYBR Green Super mix (BioRad) or Taqman probes (Applied Biosystems) for heme synthesis enzymes."}, "AMPK": {"tested_on": "AMPK", "test": "Thr-172 phospho-AMPK immunoblot analysis of DCs", "format": "cell-based, Murine", "settings": "Wnt5a 200 ng/mL, 24 and 48 hrs", "source_text": "as §1, with “Data is representative of 3 independent experiments. […] Data is representative of 3 independent experiments. […] Antibodies,” for “Antibodies,”"}}}
{"molecule": "B1", "values": [{"measurement": "OXPHOS in DCs (OCR)", "setting": "DCs [1]", "value": "effectively promoted OXPHOS in DCs"}, {"measurement": "IL-6 and IL-12 expression in primary DCs", "setting": "DCs [2]; qRT-PCR", "value": "suppresses IL-6 and IL-12 expression in primary DCs"}, {"measurement": "expression of Alas1 and further enzymes of PpIX synthesis", "setting": "DCs [2]; qRT-PCR", "value": "upregulated expression of Alas1 and several additional enzymes involved in PpIX synthesis"}, {"measurement": "expression of TCA cycle enzymes (Idh1, Idh2, Oghd, Dld, Dlst)", "setting": "DCs [2]; qRT-PCR", "value": "stimulated the expression of isocitrate dehydrogenase"}, {"measurement": "expression of hexokinase (Hk) and phosphofructokinase-1 (Pfk1)", "setting": "DCs [2]; qRT-PCR, after 4-8 hr of stimulation", "value": "downregulated the expression of the rate-limiting glycolytic enzymes"}, {"measurement": "PPAR-γ (Pparg) and CPT1A (Cpt1a) expression", "setting": "DCs [2]; real-time qPCR and immunoblot, murine and human DCs for rWnt5a", "value": "induces upregulation of Pparg and Cpt1a"}, {"measurement": "AMPK activation (Thr-172 phospho-AMPK)", "setting": "AMPK", "value": "suppressed AMPK activation"}]}
